Test results: publication PMC10397247

How the values were obtained:
Test in all cases: two-hybrid library CCmax;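 also: natural log of median RNA to DNA barcode read ratio; higher means stronger binding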
[1] = target: T1, 4H1513-AA
T1 chain: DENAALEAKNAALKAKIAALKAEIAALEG

[2] = target: T2, 4H1594-AA; settings: mean of both orientations
T2 chain: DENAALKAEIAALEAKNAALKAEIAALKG

[3] = target: T3, 4H1629-AA; settings: mean of both orientations
T3 chain: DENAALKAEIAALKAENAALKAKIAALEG

[4] = target: T4, 4H1845-AA; settings: mean of both orientations
T4 chain: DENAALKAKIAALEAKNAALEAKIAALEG

[5] = target: T5, 4H1874-AA; settings: mean of both orientations
T5 chain: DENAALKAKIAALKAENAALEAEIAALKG

[6] = target: T6, 4H2198-AA; settings: mean of both orientations
T6 chain: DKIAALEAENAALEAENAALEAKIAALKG

[7] = target: T7, 4H2553-AA; settings: mean of both orientations
T7 chain: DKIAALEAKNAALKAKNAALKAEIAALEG

[8] = target: T8, 4H2611-AA
T8 chain: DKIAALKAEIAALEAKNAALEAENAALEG

[9] = target: T9, 4H2620-AA; settings: mean of both orientations
T9 chain: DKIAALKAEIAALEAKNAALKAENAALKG

[10] = target: T10, 4H2648-AA; settings: mean of both orientations
T10 chain: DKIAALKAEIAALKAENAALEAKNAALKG

[11] = target: T11, 4H2907-AA; settings: mean of both orientations
T11 chain: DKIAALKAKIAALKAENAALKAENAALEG

[12] = target: T12, 4H2944-AA; settings: mean of both orientations
T12 chain: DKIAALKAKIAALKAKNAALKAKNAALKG

[13] = target: T13, 4H3056-AA; settings: mean of both orientations
T13 chain: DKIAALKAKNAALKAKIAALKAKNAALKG

[14] = target: T14, 4H3133-AA; settings: mean of both orientations
T14 chain: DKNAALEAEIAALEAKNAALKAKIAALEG

[15] = target: T15, 4H3162-AA; settings: mean of both orientations
T15 chain: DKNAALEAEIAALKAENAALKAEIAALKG

[16] = target: T16, 4H32-AA; settings: mean of both orientations
T16 chain: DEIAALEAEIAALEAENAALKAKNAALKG

[17] = target: T17, 4H3378-AA; settings: mean of both orientations
T17 chain: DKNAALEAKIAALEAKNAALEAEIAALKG

[18] = target: T18, 4H340-AA; settings: mean of both orientations
T18 chain: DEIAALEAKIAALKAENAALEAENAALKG

[19] = target: T19, 4H3413-AA; settings: mean of both orientations
T19 chain: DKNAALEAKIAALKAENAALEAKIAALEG

[20] = target: T20, 4H3588-AA; settings: mean of both orientations
T20 chain: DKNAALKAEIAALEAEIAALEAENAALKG

[21] = target: T21, 4H3606-AA; settings: mean of both orientations
T21 chain: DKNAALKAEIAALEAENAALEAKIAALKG

[22] = target: T22, 4H3627-AA; settings: mean of both orientations
T22 chain: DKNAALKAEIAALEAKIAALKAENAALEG

[23] = target: T23, 4H3631-AA; settings: mean of both orientations
T23 chain: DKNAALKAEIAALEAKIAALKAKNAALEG

[24] = target: T24, 4H3697-AA; settings: mean of both orientations
T24 chain: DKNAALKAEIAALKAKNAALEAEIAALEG

[25] = target: T25, 4H3718-AA; settings: mean of both orientations
T25 chain: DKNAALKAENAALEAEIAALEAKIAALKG

[26] = target: T26, 4H384-AA; settings: mean of both orientations
T26 chain: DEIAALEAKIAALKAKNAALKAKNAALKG

[27] = target: T27, 4H3865-AA; settings: mean of both orientations
T27 chain: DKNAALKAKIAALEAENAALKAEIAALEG

[28] = target: T28, 4H697-AA; settings: mean of both orientations
T28 chain: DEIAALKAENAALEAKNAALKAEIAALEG

[29] = target: T29, 4H982-AA; settings: mean of both orientations
T29 chain: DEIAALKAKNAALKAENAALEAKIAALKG

[30] = target: T30, Q3-AA; settings: mean of both orientations
T30 chain: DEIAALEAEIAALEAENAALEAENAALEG

[31] = target: T31, Q7-AA; settings: mean of both orientations
T31 chain: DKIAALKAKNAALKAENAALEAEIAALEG

[32] = target: T32, Q8-AA; settings: mean of both orientations
T32 chain: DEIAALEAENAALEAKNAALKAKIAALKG

B1: 4H1513-AA (peptide)
chain: DENAALEAKNAALKAKIAALKAEIAALEG
interaction score [1]: -1.35
interaction score [2]: -1.55
interaction score [3]: -1.62
interaction score [4]: -1.62
interaction score [5]: -1.02
interaction score [6]: 1.63
interaction score [7]: -1.64
interaction score [8]: -1.21
interaction score [9]: -1.68
interaction score [10]: -1.14
interaction score [11]: -1.65
interaction score [12]: -1.86
interaction score [13]: -1.71
interaction score [14]: -1.2
interaction score [15]: -1.99
interaction score [16]: -0.712
interaction score [17]: -1.77
interaction score [18]: -1.57
interaction score [19]: -1.28
interaction score [20]: -0.131
interaction score [21]: 0.638
interaction score [22]: -0.0527
interaction score [23]: 0.267
interaction score [24]: -2.13
interaction score [25]: 1.82
interaction score [26]: -1.22
interaction score [27]: -1.9
interaction score [28]: -1.68
interaction score [29]: -1
interaction score [30]: -1.16
interaction score [31]: -0.188
interaction score [32]: -1.06
